Test results: the supplement of paper PMC10724198
± gives the standard deviation of the averaged measurements.

System: Saccharomyces cerevisiae
Test: protein stability index of tFT-peptide fusion (C-terminal peptide) (PSI (0-1 scale)); higher = more stable (slower turnover)
Conditions: temperature: 30 C
Method: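 MPS profiling in S. cerevisiae of the yeast C-terminome library: the last 12 aa of each annotated ORF are fused to the C-terminus of a sfGFP-mCherry timer, after a GGGS linker. Cells are FACS-sorted into 8 mCherry/sfGFP bins and deep-sequenced. PSI runs from 0 (unstable) to 1 (stable); wild type and das1Δ backgrounds, two technical replicates each.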

[1] = genetic background: das1 deletion

“MSLRKYVSVCSM [YHL006W-A C-terminal 12 aa]” gave a protein stability index [1] of 0.5 ± 0.012 and a protein stability index (genetic background: wild type) of 0.513 ± 0.0063.

With “MVTNDGFGSTVL [YLR379W-A C-terminal 12 aa]” the protein stability index [1] was 0.698 ± 0.013 and the protein stability index (genetic background: wild type) was 0.734 ± 0.029.

Work on NDDDEDDDDFFD [SDD2 C-terminal 12 aa] yielded a protein stability index [1] of 0.723 ± 0.015 and a protein stability index (genetic background: wild type) of 0.6947 ± 0.0056.

Work on NDLITYLKKACE [CYC1 C-terminal 12 aa] yielded a protein stability index [1] of 0.68 ± 0.01 and a protein stability index (genetic background: wild type) of 0.683 ± 0.011.

In the case of NDSDGTILIPDI [ZDS2 C-terminal 12 aa], the protein stability index [1] is reported as 0.6982 ± 0.0057 and the protein stability index (genetic background: wild type) is reported as 0.713 ± 0.041.

With NDSEPESEYQQE [CUB1 C-terminal 12 aa] the protein stability index [1] was 0.6922 ± 0.0057 and the protein stability index (genetic background: wild type) was 0.713 ± 0.0081.

Work on NEERINSKIFKS [RCF2 C-terminal 12 aa] yielded a protein stability index [1] of 0.716 ± 0.043 and a protein stability index (genetic background: wild type) of 0.69629 ± 0.00022.

For NENDFNFINWEG [FLO8 C-terminal 12 aa], the protein stability index [1] was 0.741 ± 0.037 and the protein stability index (genetic background: wild type) was 0.7071 ± 0.0051.

NENLSNELQPSL [AME1 C-terminal 12 aa] showed a protein stability index [1] of 0.678 ± 0.009 and a protein stability index (genetic background: wild type) of 0.759 ± 0.072.

With NEQFDHKFDETL [APL4 C-terminal 12 aa] the protein stability index [1] was 0.726 ± 0.015 and the protein stability index (genetic background: wild type) was 0.671 ± 0.01.

NFEKPCLIQDGK [FMP48 C-terminal 12 aa] was tested, and the protein stability index [1] was 0.717 ± 0.051 and the protein stability index (genetic background: wild type) was 0.706 ± 0.033.

For NFTIHRPLNNGR [YDL062W C-terminal 12 aa], the protein stability index [1] was 0.731 ± 0.044 and the protein stability index (genetic background: wild type) was 0.734 ± 0.027.

Sequence NFTTNEYFIHTS [YNL226W C-terminal 12 aa] has a protein stability index [1] of 0.7352 ± 0.0013 and a protein stability index (genetic background: wild type) of 0.737 ± 0.018.

NGEIMTCWEWKE [HEH2 C-terminal 12 aa] showed a protein stability index [1] of 0.691 ± 0.034 and a protein stability index (genetic background: wild type) of 0.686 ± 0.019.

NGINNSSATYKI [ULA1 C-terminal 12 aa] showed a protein stability index [1] of 0.7027 ± 0.0063 and a protein stability index (genetic background: wild type) of 0.71 ± 0.038.

For NGLWEQEKTEKR [YKR041W C-terminal 12 aa], the protein stability index [1] was 0.716 ± 0.025 and the protein stability index (genetic background: wild type) was 0.733 ± 0.061.

NGNNVASLNTKK [TAF12 C-terminal 12 aa] showed a protein stability index [1] of 0.6865 ± 0.0016 and a protein stability index (genetic background: wild type) of 0.664 ± 0.011.

Sequence NGYFGYAPGHYP [OPT2 C-terminal 12 aa] has a protein stability index [1] of 0.6844 ± 0.0056 and a protein stability index (genetic background: wild type) of 0.708 ± 0.031.

NILPMTYLLKKK [DPI34 C-terminal 12 aa] gave a protein stability index [1] of 0.697 ± 0.049 and a protein stability index (genetic background: wild type) of 0.6405 ± 0.0054.

NILVIVYELLLG [YOS1 C-terminal 12 aa] showed a protein stability index [1] of 0.215 ± 0.023 and a protein stability index (genetic background: wild type) of 0.203 ± 0.013.

Sequence NINGTTAAVDVN [PAP1 C-terminal 12 aa] has a protein stability index [1] of 0.661 ± 0.0093 and a protein stability index (genetic background: wild type) of 0.658 ± 0.01.

For NKTNNKKKHGKK [CLU1 C-terminal 12 aa], the protein stability index [1] was 0.698 ± 0.044 and the protein stability index (genetic background: wild type) was 0.713 ± 0.024.

NLEFETEHNVTN [NDC80 C-terminal 12 aa] showed a protein stability index [1] of 0.677 ± 0.012 and a protein stability index (genetic background: wild type) of 0.708 ± 0.013.

For NLELGGLNMDFL [PGD1 C-terminal 12 aa], the protein stability index [1] was 0.7171 ± 0.0022 and the protein stability index (genetic background: wild type) was 0.708 ± 0.047.

NLLRFIVGVDVL [YDR426C C-terminal 12 aa] showed a protein stability index [1] of 0.639 ± 0.0092 and a protein stability index (genetic background: wild type) of 0.638 ± 0.0082.

NNDDSANDLIDR [CCH1 C-terminal 12 aa] gave a protein stability index [1] of 0.649 ± 0.013 and a protein stability index (genetic background: wild type) of 0.681 ± 0.02.

For NNYNLWFRLSSS [ECL1 C-terminal 12 aa], the protein stability index [1] was 0.702 ± 0.027 and the protein stability index (genetic background: wild type) was 0.668 ± 0.055.

NPADYLLEFGSG [RTG3 C-terminal 12 aa] gave a protein stability index [1] of 0.7103 ± 0.0023 and a protein stability index (genetic background: wild type) of 0.72 ± 0.029.

With NPFEYENFINIE [YOR263C C-terminal 12 aa] the protein stability index [1] was 0.7418 ± 0.0062 and the protein stability index (genetic background: wild type) was 0.721 ± 0.052.

NPVGVPNDDHHH [COX4 C-terminal 12 aa] showed a protein stability index [1] of 0.724 ± 0.0031 and a protein stability index (genetic background: wild type) of 0.668 ± 0.022.

For NQFSQPPSNVEF [SCD6 C-terminal 12 aa], the protein stability index [1] was 0.684 ± 0.025 and the protein stability index (genetic background: wild type) was 0.697 ± 0.019.

In the case of NQYANNLNLIDM [YAP1801 C-terminal 12 aa], the protein stability index [1] is reported as 0.694 ± 0.026 and the protein stability index (genetic background: wild type) is reported as 0.672 ± 0.029.

NSDRLSPMEIYN [SPO14 C-terminal 12 aa] gave a protein stability index [1] of 0.7118 ± 0.007 and a protein stability index (genetic background: wild type) of 0.6799 ± 0.0022.

Work on NSGSAATDSPFN [STS1 C-terminal 12 aa] yielded a protein stability index [1] of 0.727 ± 0.013 and a protein stability index (genetic background: wild type) of 0.674 ± 0.034.

NSIDIGSRLSLM [PEX1 C-terminal 12 aa] showed a protein stability index [1] of 0.704 ± 0.0078 and a protein stability index (genetic background: wild type) of 0.68911 ± 4.9e-05.

With NSKVMNIKALDH [MRPL10 C-terminal 12 aa] the protein stability index [1] was 0.6653 ± 0.0031 and the protein stability index (genetic background: wild type) was 0.6725 ± 0.0055.

“NSLTSLSIYAFL [YEL018C-A C-terminal 12 aa]” gave a protein stability index [1] of 0.7094 ± 0.0019 and a protein stability index (genetic background: wild type) of 0.685 ± 0.022.

NSNKKKGFKSRR [DRS1 C-terminal 12 aa] was tested, and the protein stability index [1] was 0.682 ± 0.017 and the protein stability index (genetic background: wild type) was 0.732 ± 0.0088.

For NTANRIIEELLK [UBC1 C-terminal 12 aa], the protein stability index [1] was 0.68955 ± 0.00029 and the protein stability index (genetic background: wild type) was 0.67 ± 0.032.

NTMGKSGRHNIT [YOR282W C-terminal 12 aa] was tested, and the protein stability index [1] was 0.6851 ± 0.0044 and the protein stability index (genetic background: wild type) was 0.685 ± 0.032.

Work on NVGKQLSNEIIY [PRP28 C-terminal 12 aa] yielded a protein stability index [1] of 0.695 ± 0.045 and a protein stability index (genetic background: wild type) of 0.686 ± 0.042.
